Reference: patent US11814435B2, “Therapeutic antibodies and their uses” (PFIZER INC., priority 2015, dated 2023)

Columns and labels:
Cyno BCMA = assay: Kinetics and affinity of cyno BCMA/human IgG interactions by SPR (Bio-Rad Proteon XPR36); format: binding, cynomolgus; settings: 37° C.
hBCMA (human BCMA) = target: T1, hBCMA (human BCMA) (Homo sapiens, UniProt Q02223); assay: Kinetics and affinity of hBCMA/human IgG interactions by SPR (Bio-Rad Proteon XPR36); format: binding; settings: human BCMA, 37° C.
T1 sequence (Q02223 1-184): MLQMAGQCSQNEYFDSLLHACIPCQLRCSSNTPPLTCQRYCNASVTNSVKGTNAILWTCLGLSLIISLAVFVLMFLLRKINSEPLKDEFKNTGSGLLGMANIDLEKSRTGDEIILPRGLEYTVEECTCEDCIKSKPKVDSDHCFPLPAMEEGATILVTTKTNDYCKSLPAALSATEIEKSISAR
In short: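 IgG amine-coupled (20 μg/mL, acetate pH 4.5), GLC chip. hBCMA 0.08–50 nM, 5-fold steps, low→high, 2 min assoc., 2 h dissoc. after top conc. HBS-T+ + 1 mg/mL BSA, 37° C. or 25° C. Buffer-blank double referencing; 1:1 Langmuir with mass transport fit.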

Molecule	ka Cyno (Cyno BCMA) [M⁻¹ s⁻¹]	kd Cyno (Cyno BCMA) [s⁻¹]	ka Human (hBCMA (human BCMA)) [M⁻¹ s⁻¹]	kd Human (hBCMA (human BCMA)) [s⁻¹]
COMBO_Rd4_0.6 nM_C04: anti-BCMA antibody (antibody, V domains shown) VH: EVQLLESGGGLVQPGGSLRLSCAASGFTFSSYPMSWVRQAPGKGLEWVSAHIGSGGSTYYADSVKGRFTISRDNSKNTLYLQMNSLRAEDTAVYYCARYWPMDSWGQGTLVTVSS VL: EIVLTQSPGTLSLSPGERATLSCRASQSVSSTYLAWYQQKPGQAPRLLMYDASIRATGIPDRFSGSGSGTDFTLTISRLEPEDFAVYYCQQYQSWPLTFGQGTKVEIK	3.52e+06	0.000137	1.07e+07	0.000158
COMBO_Rd4_6 nM_C25: anti-BCMA antibody (antibody, V domains shown) VH: EVQLLESGGGLVQPGGSLRLSCAASGFTFSSYPMSWVRQAPGKGLEWVSAIGGSGGSTYYADSVKGRFTISRDNSKNTLYLQMNSLRAEDTAVYYCARYWPMDPWGQGTLVTVSS VL: EIVLTQSPGTLSLSPGERATLSCRASQSVSSPYLAWYQQKPGQAPRLLMYDASIRATGIPDRFSGSGSGTDFTLTISRLEPEDFAVYYCQQYQSWPLTFGQGTKVEIK	2.85e+06	0.000226	7.98e+06	0.000113
COMBO_Rd4_0.6 nM_C21: anti-BCMA antibody (antibody, V domains shown) VH: EVQLLESGGGLVQPGGSLRLSCAASGFTFSSYPMSWVRQAPGKGLEWVSAIGGSGGSLPYADSVKGRFTISRDNSKNTLYLQMNSLRAEDTAVYYCARYWPMDSWGQGTLVTVSS VL: EIVLTQSPGTLSLSPGERATLSCRASQSVSSSYLAWYQQKPGQAPRLLMYDASIRATGIPDRFSGSGSGTDFTLTISRLEPEDFAVYYCQQYQSWPLTFGQGTKVEIK	3.63e+06	0.000304	1.34e+07	0.000115
COMBO_Rd4_6 nM_C11: anti-BCMA antibody (antibody, V domains shown) VH: EVQLLESGGGLVQPGGSLRLSCAASGFTFSSYPMSWVRQAPGKGLEWVSAIGGSGGSLGYADSVKGRFTISRDNSKNTLYLQMNSLRAEDTAVYYCARYWPMDSWGQGTLVTVSS VL: EIVLTQSPGTLSLSPGERATLSCRASQSVSPLYLAWYQQKPGQAPRLLMYDASIRATGIPDRFSGSGSGTDFTLTISRLEPEDFAVYYCQQYKAWPLTFGQGTKVEIK	2.64e+06	0.000412	6.74e+06	0.000124
COMBO_Rd4_0.6 nM_C20: anti-BCMA antibody (antibody, V domains shown) VH: EVQLLESGGGLVQPGGSLRLSCAASGFTFSSYPMSWVRQAPGKGLEWVSAIGGSGGSLPYADSVKGRFTISRDNSKNTLYLQMNSLRAEDTAVYYCARYWPMDSWGQGTLVTVSS VL: EIVLTQSPGTLSLSPGERATLSCRASQSVSYLYLAWYQQKPGQAPRLLMYDASIRATGIPDRFSGSGSGTDFTLTISRLEPEDFAVYYCQQYMEWPLTFGQGTKVEIK	3.09e+06	0.000284	7.65e+06	0.000146
COMBO_Rd4_6 nM_C09: anti-BCMA antibody (antibody, V domains shown) VH: EVQLLESGGGLVQPGGSLRLSCAASGFTFSSYPMSWVRQAPGKGLEWVSAIFASGGSTYYADSVKGRFTISRDNSKNTLYLQMNSLRAEDTAVYYCARYWPMDSWGQGTLVTVSS VL: EIVLTQSPGTLSLSPGERATLSCRASQSVSAQYLAWYQQKPGQAPRLLMYDASIRATGIPDRFSGSGSGTDFTLTISRLEPEDFAVYYCQQYQAWPLTFGQGTKVEIK	2.37e+06	0.000318	8.85e+06	0.000143
COMBO_Rd4_6 nM_C08: anti-BCMA antibody (antibody, V domains shown) VH: EVQLLESGGGLVQPGGSLRLSCAASGFTFSSYPMSWVRQAPGKGLEWVSAIGGSGTWTYYADSVKGRFTISRDNSKNTLYLQMNSLRAEDTAVYYCARYWPMDSWGQGTLVTVSS VL: EIVLTQSPGTLSLSPGERATLSCRASQSVSSSYLAWYQQKPGQAPRLLMYDASIRATGIPDRFSGSGSGTDFTLTISRLEPEDFAVYYCQQYQKWPLTFGQGTKVEIK	3.06e+06	0.000428	8.99e+06	0.000169
COMBO_Rd4_0.6 nM_C19: anti-BCMA antibody (antibody, V domains shown) VH: EVQLLESGGGLVQPGGSLRLSCAASGFTFSSYPMSWVRQAPGKGLEWVSAIGGSGGSLPYADSVKGRFTISRDNSKNTLYLQMNSLRAEDTAVYYCARYWPMDSWGQGTLVTVSS VL: EIVLTQSPGTLSLSPGERATLSCRASQSVSAVYLAWYQQKPGQAPRLLMYDASIRATGIPDRFSGSGSGTDFTLTISRLEPEDFAVYYCQQYRAWPLTFGQGTKVEIK	2.92e+06	0.000979	7.86e+06	0.000155
COMBO_Rd4_0.6 nM_C02: anti-BCMA antibody (antibody, V domains shown) VH: EVQLLESGGGLVQPGGSLRLSCAASGFTFSSYPMSWVRQAPGKGLEWVSAIGGSGGSLPYADSVKGRFTISRDNSKNTLYLQMNSLRAEDTAVYYCARYWPMDSWGQGTLVTVSS VL: EIVLTQSPGTLSLSPGERATLSCRASIAVSSTYLAWYQQKPGQAPRLLMYDASIRATGIPDRFSGSGSGTDFTLTISRLEPEDFAVYYCQQYMVWPLTFGQGTKVEIK	3.01e+06	0.000494	8.57e+06	0.000185
COMBO_Rd4_0.6 nM_C23: anti-BCMA antibody (antibody, V domains shown) VH: EVQLLESGGGLVQPGGSLRLSCAASGFTFSSYPMSWVRQAPGKGLEWVSALFGSGGSTYYADSVKGRFTISRDNSKNTLYLQMNSLRAEDTAVYYCARYWPMDSWGQGTLVTVSS VL: EIVLTQSPGTLSLSPGERATLSCRPRQSVSSSYLAWYQQKPGQAPRLLMYDASIRATGIPDRFSGSGSGTDFTLTISRLEPEDFAVYYCQQYQDWPLTFGQGTKVEIK	2.81e+06	0.000531	7.39e+06	0.00021
COMBO_Rd4_0.6 nM_C09: anti-BCMA antibody (antibody, V domains shown) VH: EVQLLESGGGLVQPGGSLRLSCAASGFTFSSYPMSWVRQAPGKGLEWVSAIGGSGGSLPYADSVKGRFTISRDNSKNTLYLQMNSLRAEDTAVYYCARYWPMDIWGQGTLVTVSS VL: EIVLTQSPGTLSLSPGERATLSCRASQSVSSTYLAWYQQKPGQAPRLLMYDASIRATGIPDRFSGSGSGTDFTLTISRLEPEDFAVYYCQQYQEWPLTFGQGTKVEIK	3.77e+06	0.000346	1.04e+07	0.000319
